From the supplement of paper PMC11908140

B1: library; numbered along this chain (parent)
chain: MRKPRAAVGSGHRKQAASQEGRQKHAKNNSQAKPSACDGLARQPEEVVLQASVSSYHLFRDVAEVTAFRGSLLSWYDQEKRDLPWRRRAEDEMDLDRRAYAVWVSEVMLQQTQVATVINYYTGWMQKWPTLQDLASASLEEVNQLWAGLGYYSRGRRLQEGARKVVEELGGHMPRTAETLQQLLPGVGRYTAGAIASIAFGQATGVVDGNVARVLCRVRAIGADPSSTLVSQQLWGLAQQLVDPARPGDFNQAAMELGATVCTPQRPLCSQCPVESLCRARQRVEQEQLLASGSLSGSPDVEECAPNTGQCHLCLPPSEPWDQTLGVVNFPRKASRKPPREESSATCVLEQPGALGAQILLVQRPNSGLLAGLWEFPSVTWEPSEQLQRKALLQELQRWAGPLPATHLRHLGEVVHTFSHIKLTYQVYGLALEGQTPVTTVPPGARWLTQEEFHTAAVSTAMKKVFRVYQGQQPGTCMGSKRSQVSSPCSRKKPRMGQQVLDNFFRSHISTDAHSLNSAAQ

Variants of: B1
Assay: 8OG:A repair function score (normalized; synonymous = 0, nonsense = -1) (normalized log-likelihood score); higher = more repair activity (WT-like)
Details: with 8OG:A DNA repair reporter (GFP) in HEK-293 MUTYH KO cells
Description: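 Saturation mutagenesis (NNN codon scan) of the MUTYH cDNA (521-aa nuclear isoform NM_001048174.1 / NP_001041639), stably expressed under doxycycline induction in HEK-293 MUTYH knockout cells. Cells were co-transfected with an 8OG:A-bearing GFP repair reporter plus mCherry and sorted 72 h later into GFP+ and GFP− bins, three replicates per tile. The Rosace log2 enrichment (GFP+ vs GFP−) was converted per tile to a normalized function score with synonymous variants centered at 0 and nonsense variants (codons 1-471) at -1; low-abundance variants were removed.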

Row | Variant | 8OG:A repair function score
1 | L139G | -0.00666
2 | S318V | -0.155
3 | L49G | -0.027
4 | L361F | -0.49
5 | V214W | -0.258
6 | C216K | -0.969
7 | A6Q | 0.0112
8 | P267H | -0.87
9 | F59D | -0.583
10 | P442I | -0.0279
11 | W146Q | -0.345
12 | Y428E | -1.1
13 | P185Q | -0.197
14 | L277V | -0.0751
15 | A334P | -0.147
16 | S294H | -0.0171
17 | W321Y | -0.123
18 | V206N | -0.923
19 | E90T | -0.0178
20 | K422Y | -0.355
21 | G209S | 0.0281
22 | L393I | 0.0907
23 | G258D | -1.04
24 | R217Q | -1.03

Row | Variant | 8OG:A repair function score
25 | V379I | -0.327
26 | S384Y | -0.227
27 | F453G | -0.893
28 | T260W | -0.207
29 | F418T | -0.165
30 | A196H | -0.673
31 | T116W | -0.0903
32 | R42T | -0.0609
33 | L373W | -0.229
34 | Q43M | 0.0733
35 | A137P | -0.869
36 | Q323E | -0.0118
37 | Q233H | 0.461
38 | S138I | -0.286
39 | L369R | 0.0308
40 | Q450E | 0.156
41 | L448W | -0.658
42 | L360E | -1.15
43 | L393C | -0.00132
44 | H420Y | -0.672
45 | W103G | -0.73
46 | I198F | -0.447
47 | H416L | -0.319
48 | L237S | -0.551

Row | Variant | 8OG:A repair function score
49 | L290C | -0.0194
50 | Y151D | -1
51 | K337W | -0.0779
52 | V438K | -0.0297
53 | G148H | -0.166
54 | R98D | -0.438
55 | P404C | -0.224
56 | T449M | -0.0649
57 | A203M | -0.0505
58 | P437Q | -0.0348
59 | Q159L | 0.127
60 | V48G | 0.0279
61 | A391C | -0.0464
62 | V485E | -0.0478
63 | R279F | -0.277
64 | G479I | -0.00859
65 | Y121I | -0.562
66 | P44V | -0.0774
67 | Q265F | -0.022
68 | G193K | -0.203
69 | L430V | -0.165
70 | A147L | -0.207
71 | S227D | 0.49
72 | K463L | -0.0958

Row | Variant | 8OG:A repair function score
73 | C311M | -0.621
74 | G297A | -0.00898
75 | N119I | -0.263
76 | R87F | -0.0196
77 | Q132G | -0.076
78 | R364V | -0.616
79 | E375K | -0.462
80 | A291E | -0.125
81 | T436P | -0.0919
82 | C489D | 0.013
83 | E168S | -0.0595
84 | S71V | 0.00531
85 | V438T | -0.0976
86 | V438E | 0.281
87 | S270K | -0.0187
88 | R398H | 0.0204
89 | L158P | -0.951
90 | E178S | -0.037
91 | E350L | -0.12
92 | P331F | -0.357
93 | Q282M | -0.0222
94 | Q144N | -0.299
95 | G205W | -0.894
96 | R154D | -1.11

Row | Variant | 8OG:A repair function score
97 | Y469C | -0.193
98 | K493N | 0.0279
99 | S276M | -0.0454
100 | L149W | -1.46
101 | T449S | 0.084
102 | L183E | -0.0475
103 | S153A | 0.0766
104 | A51W | 0.101
105 | L215F | -0.325
106 | S296N | -0.0281
107 | P129E | -0.084
108 | V301T | -0.284
109 | G155D | -0.75
110 | E319N | -0.0746
111 | D502C | -0.00279
112 | P494T | 0.0124
113 | S318D | -0.0363
114 | I118W | -0.13
115 | V53H | 0.00594
116 | S276A | 0.0102
117 | P404W | -0.26
118 | F418V | -0.269
119 | A245G | 0.0269
120 | Q473E | -0.021

Row | Variant | 8OG:A repair function score
121 | T460W | -0.305
122 | V47M | -0.0812
123 | R389T | 0.1
124 | H407Y | -0.269
125 | L373C | -0.611
126 | M478G | 0.0207
127 | L277K | -0.17
128 | T380V | -0.0828
129 | W103H | -0.97
130 | G401Y | -0.393
131 | A223G | -0.111
132 | E452D | -0.0961
133 | Y190A | -0.38
134 | V379F | -0.299
135 | V165C | -0.0561
136 | M93D | 0.0046
137 | V414C | 0.129
138 | E275W | -0.0767
139 | V206T | -0.338
140 | N517I | -0.00121
141 | F505W | 0.00244
142 | A238I | -0.365
143 | L183N | -0.102
144 | R2W | -0.00849

Row | Variant | 8OG:A repair function score
145 | K337P | 0.0544
146 | W85T | -1.61
147 | P338V | -0.0391
148 | R409W | 0.0733
149 | Q181R | -0.0552
150 | R219D | -0.946
151 | L237V | -0.463
152 | L516K | 0.00908
153 | R283K | -0.0478
154 | F200V | -0.545
155 | R389S | -0.117
156 | V500N | -0.0108
157 | S515C | -0.0274
158 | L411E | -0.473
159 | A461K | -0.813
160 | Q233S | 0.0726
161 | A280F | -0.597
162 | Q78G | -0.0331
163 | N143W | -0.253
164 | P273F | -0.844
165 | Q470M | -0.0791
166 | L361K | -0.984
167 | C477F | -0.0432
